Test results as given in the emibetuzumab library of Makowski et al. (2022).

B1: VH:VL chains; a variant is named by its letters at X, in order (parent)
chain 1: QVQLVQSGAEVKKPGASVKVSCKASGYTFTDYXMHWVRQAPGQGLEWMGXVNPNXXXTTYNQKFEGRVTMTTDTSTSTAYMELRSLRSDDTAVYYCARXNXLDXWGQGTTVTVSS
chain 2: DIQMTQSPSSLSASVGDRVTITCSVSSSVSSIYLHWYQQKPGKAPKLLIYSTSNLASGVPSRFSGSGSGTDFTLTISSLQPEDFATYYCQVYSGYPLTFGGGTKVEIK

Variants of: B1
Assay: yeast display scFab, FACS + sequencing
Summary of the method: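 For the non-specific binding call, a heavy-chain CDR mutant scFab library on the yeast surface was FACS-sorted and samples from two replicates were deep sequenced. Cells were labelled with anti-Myc and either biotinylated ovalbumin (260 μg/mL in PBSB, 3 h, room temperature) or soluble membrane proteins (130 μg/mL, 20 min on ice), with gates on the top 25% and bottom 10% of binders. With membrane protein and ovalbumin samples pooled, a sequence in ≥3 of 4 positive samples and no negatives was scored positive, and the converse rule scored negatives.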

Variant	non-specific binding call
YKAEDVGD	binds
DGGEGVVY	binds
VKAASAVY	no binding
YGGKNSVD	no binding
VGEGGDAY	no binding
DGGKNDWV	no binding
VGGRADGF	binds
FGTKGAWD	binds
YGRRGFSV	binds
SGETGDSV	no binding
VGGRGDGS	no binding
YGRGNSGD	no binding
SGEGGAVA	no binding
SGRGNAGD	no binding
SGGGNDLA chain 1 R87K	no binding
VGETSYVD	binds
VKAGDSSS	no binding
AGGGNDVY	no binding
AGGGNDVV	no binding
AGGGNDWV	no binding
SGGRTYGV	binds
YGGRGSWV	no binding
YKAGDSVA	no binding
YGGGGDVV	no binding
AGGRGDVD	no binding
DGTGGAGA	no binding

Variant	non-specific binding call
SGRGNDAV	no binding
FGRRTYGD	binds
VGRTSFGF	binds
FGGEGDGA	binds
YGARNAAV	binds
VGGGNDLA chain 1 R87K	no binding
AGETGFSA	binds
DGGKGAVD	binds
DGGKNDAV	no binding
VGAEDDVA	no binding
VKAGDDVA	no binding
YGGRGAVA	no binding
YGTRSAAD	no binding
DGGGNDLV	no binding
DGGENDVF	no binding
DGGENDVY	no binding
AGGGNAGD	no binding
DGGRGDAF	no binding
YGTRSYGV	binds
SGTADSSS	binds
FGATSVSF	binds
VGGTGDVF	no binding
DGGGASSA	no binding
YKAGGALY	binds
YKAGGALA	binds
YKAGGALD	binds

Variant	non-specific binding call
VGATSVSF	binds
VGGTGSGA	no binding
VGGTGSGY	no binding
VGGTSDVV	no binding
VGGTSDVF	no binding
VGGTSDVA	no binding
DGGENAGD	no binding
SGRGNAAD	no binding
SKAGGALD	binds
DGTGGSGA chain 1 R67H	no binding
VGGTSSLD	no binding
DGGTSYSV	no binding
FGRGGVGD	binds
VGGKNSVD	no binding
VKAGDAWS	no binding
FKAGGAVA	binds
DGERDYSD	binds
VKAGDSGA	no binding
VGGGADGA	no binding
VGGGADGV	no binding
DGERTAGV	no binding
YGETGFWY	binds
VKAGGAGS chain 1 G44D	binds
YGGGGASV	binds
YGARGAAF	binds
DGRGNSGD	no binding

Variant	non-specific binding call
DGGKNDVV	no binding
SGRGNDGV	no binding
DGGTNAGD	no binding
AGGTSYSV	no binding
YKAGDVSV	binds
FKAEAFSF	binds
AGGGNDGV	no binding
AGGGNDGA	no binding
VGARNSGV	no binding
AGGENDGD	no binding
YGGTSYSV	no binding
VGGTSSSS	no binding
VGGTSSSV	no binding
VGGTSSSA	no binding
DGKEGYWA	binds
SKAGGDVD	no binding
YKAGGFGA	binds
VGTKGAGF	binds
AKAADSSD	binds
YKAGGAWD	binds
DGGTNDVA	no binding
DGGTNDVD	no binding
SGEEGSGA	binds
VGRATVGS	binds
SGKKSSGV	binds
VKAGGDAV	no binding

Variant	non-specific binding call
YGGRGDWV	no binding
VGTKGSSA	no binding
YGAGDFGA	binds
YGGGGAVA	no binding
DGGRGDGA	no binding
SGREGDWD	binds
VKAAGSVD	binds
VGGGAAGV	no binding
VGGGAAGF	no binding
SGGRDSGV	binds
DGARNFGV	no binding
AGTRSFGY	binds
DGGRAFWF	binds
YGKGGDLA	binds
SGKGGSAY	binds
DGGRGDVV	no binding
SGEGGAGA	no binding
YGETGFGS	binds
VKAGASAD	binds
FGRRGAGV	binds
FGGENDGD	no binding
DKAGGAGV	no binding
SGKKAVWV	binds
VGGTSDWA	no binding
AGRGADLS	no binding
DGARGALF	binds

Variant	non-specific binding call
YGETGDSV	no binding
DGGGNDLA chain 1 R87K	no binding
SGRGNSGV	no binding
YKAGGFWF	binds
VKAGDAAV	no binding
YKAGDAAA	binds
AKAGGASD	binds
YGGGGVAA	binds
YGATSSLA	binds
AGEGNSWA	no binding
AGGGNSGV	no binding
SGRGNALD	no binding
SGGTGDVF	no binding
DGRGDALS	no binding
FGRGSSWA	no binding
SGEGNSWA	no binding
AGGRSFVF	binds
VKAGDAVY	no binding
AGERNVAS	binds
VGGTSDGV	no binding
VGGTSDGA	no binding
VGGTSDGD	no binding
VGGTSALD	no binding
DGGTGDVF	no binding
YGKGTSGF	no binding
DKAGGDGS	no binding

Variant	non-specific binding call
VGRGNSGD	no binding
DGTKSYGV	binds
DGAKGDGV	no binding
SKAENAWV	binds
VGKGDDAA	no binding
DGEGGDWD	binds
DGGKNSVD	no binding
FGRGTSGD	binds
YGGRAAGA	binds
YKAGDDGA	no binding
DGGKNAGD	no binding
DGGKNAGV	no binding
SGAGDYSD	binds
YGTATFLV	binds
SGREGDSA	no binding
YKAGDSSD	no binding
YGAAGSAA	binds
VGGTSSGA	no binding
VGGGNAGD	no binding
YGTAAFGF	binds
DGGKNDLA	no binding
DGGRSAVF	no binding
DGARNAAA	no binding
DGGKNAVV	no binding
DGGKNAVA	no binding
YGAKGDGV	no binding

Variant	non-specific binding call
FGEEDFSS chain 1 W105R	binds
YGRTSAAV	binds
SKAGDAWD	binds
SKAGDAWY	binds
FGAKTASF	no binding
VGRGNVGV	binds
VGGTDFVA	no binding
FGKGGFGY	binds
VKAGGDGS	no binding
VGGGADVA	no binding
FGAATDGV	binds
FGATSFSV	binds
YGKRDASY	binds
FGAKGSSS	binds
FGAAAVGD	binds
VGGGGAAD	no binding
SGRGNSVD	no binding
DGGTNDGA	no binding
VGGGGDGS	no binding
SGEGGAAV	no binding
VKAGGDVY	no binding
VGTKGDAA	no binding
YGGRADVY	no binding
VGATSFSA	binds
DGGGGYWF	binds
VGAEGVWS chain 1 G66S	binds

Variant	non-specific binding call
DGARNAGV	no binding
SGGKNSVD	no binding
DGGGNVSD	no binding
VKAGGDSD	no binding
DGGTNSSA	no binding
VGEKGDGV	no binding
YGGRGDAD	no binding
VGGTSSAD	no binding
DGGADVGA	binds
VGGGASGV	no binding
AETTDSWV	no binding
AGTKADVV chain 1 G108S	no binding
YKAGDAGD	no binding
SKAGGAGA	binds
AGKGGFAY	binds
DGGKNDGV	no binding
DGGKNDGS	no binding
DGGKNDGD	no binding
YGGRGYAV	binds
SGTKGYWD	binds
FGKEDSVD	binds
DGARNSGV	no binding
